Square brackets hold non-standard residues; d marks the D form. Peptide text beside a SMILES is read from it. * marks the point of attachment. Biotin = O=C1N[C@H]2[C@H](CS[C@H]2CCCCC(=O)*)N1; Phe(4-tBu) = CC(C)(C)c1ccc(C[C@H](N)C(=O)O)cc1; Bip = N[C@@H](Cc1ccc(-c2ccccc2)cc1)C(=O)O; pT = C[C@@H](OP(=O)(O)O)[C@H](N)C(=O)O; 2Nal = N[C@@H](Cc1ccc2ccccc2c1)C(=O)O; Bta = N[C@@H](Cc1csc2ccccc12)C(=O)O; Tic = O=C(O)[C@@H]1Cc2ccccc2CN1; 2Thi = N[C@@H](Cc1cccs1)C(=O)O; Cha = N[C@@H](CC1CCCCC1)C(=O)O; Tle = CC(C)(C)[C@H](N)C(=O)O; NMeA = CN[C@@H](C)C(=O)O
Assays:
hPin1 = molecular target: T1, hPin1 (Homo sapiens, UniProt Q13526); experiment: Protease free PPIase assay, hPin1; type: biochemical; conditions: for IC50: blockade of PPIase activity of full-length hPin1, protease free assay, 10° C., read-out: IC50
T1 construct: The protease free assay ensures reliable measurement of IC50 values for the full-length hPin1
Method: Protein concentrations were determined using the extinction coefficient ε280=21030 M^−1 cm^−1 for hPin1, ε280=6979 M^−1 cm^−1 for the hPin1 PPIase domain, ε280=21030 M^−1 cm^−1 for XlPin1, ε280=8250 M^−1 cm^−1 for hPar14 and ε280=8250 M^−1 cm^−1 for hCyp18. Extinction coefficients were calculated using the program ProtParam Tool at ExPASy (SIB, Switzerland). All measurements were done at 10° C. in 35 mM Hepes buffer (pH 7.8).
The determination of the kinetic constants of the cis/trans isomerization within the protease-free system was performed using fluorescence based measurements (Garcia-Echeverria et al., 1993, Zhang et al., 2002) on a Hitachi F-3010 fluorescence spectrophotometer with H-Abz-Ala-Glu-Pro-Phe-NH-Np (SEQ ID NO: 2) as substrate. The substrate stock solution was 12 mM in anhydrous trifluoroethanol/0.55 M LiCl. Measurements were initiated by addition of the substrate (final concentration 10 μM) to a pre-incubated (15 min) mixture of 8.8 nM hPin1 or 7.1 nM XlPin1 and respective inhibitory peptide of desired concentrations. The excitation wavelength was 320 nm (spectral bandwidth 3 nm) and emission was detected at 420 nm (spectral bandwidth 10 nm).
Data analysis was performed by single-exponential nonlinear regression using the SigmaPlot Scientific Graphing System Version 5.00 (Jandel Corp.). The apparent first order rate constant kobs was computed by nonlinear regression of the progress curve obtained for the respective measurement. The rate constant k0 was determined in the absence of Pin1. The first order rate constants kenz was calculated from the equation kenz=kobs−k0. IC50 and Ki values were determined by fitting the first order rate constants kenz against the concentration of the inhibitory peptide by nonlinear regression according to Schutkowski et al., 1995 or a model for tight binding inhibitors (Morrison, 1969).
The protease free assay ensures reliable measurement of IC50 values for the full-length hPin1.

full-length hPin1 = full-length hPin1 (human, UniProt Q13526 1-163); experiment: cell-based or functional assay
Chain of full-length hPin1 (Q13526 whole entry): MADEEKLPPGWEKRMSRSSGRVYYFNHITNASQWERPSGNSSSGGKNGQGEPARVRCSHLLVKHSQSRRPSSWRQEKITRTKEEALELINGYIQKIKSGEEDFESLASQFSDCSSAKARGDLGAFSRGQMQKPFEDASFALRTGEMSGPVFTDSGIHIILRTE

T1 sequence (Q13526 whole entry): as above

Molecule	IC50 (hPin1) [µM]	fold decrease of inhibition, prolyl residue at Yaa versus peptide 15 (hPin1; compared with peptide 15) [fold]	IC50(µM), blockade of the PPIase activity of hPin1, protease free PPIase assay (full-length hPin1) [µM]
CC(=O)N[C@@H](CCCCNC(=O)CCCC[C@@H]1SC[C@@H]2NC(=O)N[C@@H]21)C(=O)N[C@@H](C)C(=O)N[C@@H](C)C(=O)N[C@@H](Cc1csc2ccccc12)C(=O)N[C@H](C(=O)N1CCC[C@H]1C(=O)N[C@@H](Cc1ccc2ccccc2c1)C(=O)N[C@@H](CCC(N)=O)C(N)=O)[C@@H](C)OP(=O)(O)O [Peptide 4] (Ac-K(Biotin)AA[Bta][pT]P[2Nal]Q-NH2)	20	100	–
CC(=O)N[C@@H](CCCCNC(=O)CCCC[C@@H]1SC[C@@H]2NC(=O)N[C@@H]21)C(=O)N[C@@H](C)C(=O)N[C@@H](C)C(=O)N[C@@H](Cc1ccc2ccccc2c1)C(=O)N[C@H](C(=O)N1CCC[C@H]1C(=O)N[C@@H](CC1CCCCC1)C(=O)N[C@@H](CCC(N)=O)C(N)=O)[C@@H](C)OP(=O)(O)O [Peptide 8] (Ac-K(Biotin)AA[2Nal][pT]P[Cha]Q-NH2)	> 50	–	–
CC(=O)N[C@@H](CCCCNC(=O)CCCC[C@@H]1SC[C@@H]2NC(=O)N[C@@H]21)C(=O)N[C@@H](C)C(=O)N[C@@H](C)C(=O)N[C@@H](Cc1ccc(-c2ccccc2)cc1)C(=O)N[C@H](C(=O)N1CCC[C@H]1C(=O)N[C@@H](Cc1csc2ccccc12)C(=O)N[C@@H](CCC(N)=O)C(N)=O)[C@@H](C)OP(=O)(O)O [Peptide 5] (Ac-K(Biotin)AA[Bip][pT]P[Bta]Q-NH2)	15	–	–
Ac-Lys(Nε-biotinoyl)-Ala-Ala-Xaa-Thr(PO3H2)-Yaa-Zaa-Gln-NH2 with Xaa Bth, Yaa Pro, Zaa Cha [Peptide 3]	> 50	–	–
CC(=O)N[C@@H](CCCCNC(=O)CCCC[C@@H]1SC[C@@H]2NC(=O)N[C@@H]21)C(=O)N[C@@H](C)C(=O)N[C@@H](C)C(=O)N[C@@H](Cc1ccccc1)C(=O)N[C@H](C(=O)N(C)[C@@H](C)C(=O)N[C@@H](Cc1csc2ccccc12)C(=O)N[C@@H](CCC(N)=O)C(N)=O)[C@@H](C)OP(=O)(O)O [Peptide 12] (Ac-K(Biotin)AAF[pT][NMeA][Bta]Q-NH2)	20	–	–
CC(=O)N[C@@H](CCCCNC(=O)CCCC[C@@H]1SC[C@@H]2NC(=O)N[C@@H]21)C(=O)N[C@@H](C)C(=O)N[C@@H](C)C(=O)N[C@@H](Cc1ccc2ccccc2c1)C(=O)N[C@H](C(=O)N1CCC[C@H]1C(=O)N[C@H](C(=O)N[C@@H](CCC(N)=O)C(N)=O)C(C)(C)C)[C@@H](C)OP(=O)(O)O [Peptide 7] (Ac-K(Biotin)AA[2Nal][pT]P[Tle]Q-NH2)	> 50	–	–
CC(=O)N[C@@H](CCCCNC(=O)CCCC[C@@H]1SC[C@@H]2NC(=O)N[C@@H]21)C(=O)N[C@@H](C)C(=O)N[C@@H](C)C(=O)N[C@@H](Cc1cccs1)C(=O)N[C@H](C(=O)N(C)[C@@H](C)C(=O)N[C@@H](Cc1ccc2ccccc2c1)C(=O)N[C@@H](CCC(N)=O)C(N)=O)[C@@H](C)OP(=O)(O)O [Peptide 10] (Ac-K(Biotin)AA[2Thi][pT][NMeA][2Nal]Q-NH2)	15	–	–
Ac-K(Biotin)AA[Phe(4-tBu)][pT][Tic][Bta]Q-NH2 (SMILES CC(=O)N[C@@H](CCCCNC(=O)CCCC[C@@H]1SC[C@@H]2NC(=O)N[C@@H]21)C(=O)N[C@@H](C)C(=O)N[C@@H](C)C(=O)N[C@@H](Cc1ccc(C(C)(C)C)cc1)C(=O)N[C@H](C(=O)N1Cc2ccccc2C[C@H]1C(=O)N[C@@H](Cc1csc2ccccc12)C(=O)N[C@@H](CCC(N)=O)C(N)=O)[C@@H](C)OP(=O)(O)O) [peptide 13]	–	–	8
Ac-K(Biotin)AA[Bip][pT]P[Bta]Q-NH2 [peptide 5]	–	–	15
Ac-K(Biotin)AAF[pT][NMeA][Bta]Q-NH2 (SMILES CC(=O)N[C@@H](CCCCNC(=O)CCCC[C@@H]1SC[C@@H]2NC(=O)N[C@@H]21)C(=O)N[C@@H](C)C(=O)N[C@@H](C)C(=O)N[C@@H](Cc1ccccc1)C(=O)N[C@H](C(=O)N(C)[C@@H](C)C(=O)N[C@@H](Cc1csc2ccccc12)C(=O)N[C@@H](CCC(N)=O)C(N)=O)[C@@H](C)OP(=O)(O)O) [peptide 12]	–	–	20
Ac-K(Biotin)AA[Bta][pT]P[Cha]Q-NH2 [peptide 3]	–	–	> 50
Ac-K(Biotin)AA[Phe(4-tBu)][pT][NMeA][2Nal]Q-NH2 [peptide 9]	–	–	10
Ac-K(Biotin)AA[2Nal][pT]P[Cha]Q-NH2 [peptide 8]	–	–	> 50
Ac-K(Biotin)AA[Phe(4-tBu)][pT]P[2Nal]Q-NH2 (SMILES CC(=O)N[C@@H](CCCCNC(=O)CCCC[C@@H]1SC[C@@H]2NC(=O)N[C@@H]21)C(=O)N[C@@H](C)C(=O)N[C@@H](C)C(=O)N[C@@H](Cc1ccc(C(C)(C)C)cc1)C(=O)N[C@H](C(=O)N1CCC[C@H]1C(=O)N[C@@H](Cc1ccc2ccccc2c1)C(=O)N[C@@H](CCC(N)=O)C(N)=O)[C@@H](C)OP(=O)(O)O) [peptide 1]	–	–	30
Ac-K(Biotin)AA[Cha][pT][NMeA][2Nal]Q-NH2 [peptide 11]	–	–	7
Ac-K(Biotin)AA[Bip][pT]P[2Nal]Q-NH2 [peptide 6]	–	–	18
Ac-K(Biotin)AA[2Thi][pT][NMeA][2Nal]Q-NH2 (SMILES CC(=O)N[C@@H](CCCCNC(=O)CCCC[C@@H]1SC[C@@H]2NC(=O)N[C@@H]21)C(=O)N[C@@H](C)C(=O)N[C@@H](C)C(=O)N[C@@H](Cc1cccs1)C(=O)N[C@H](C(=O)N(C)[C@@H](C)C(=O)N[C@@H](Cc1ccc2ccccc2c1)C(=O)N[C@@H](CCC(N)=O)C(N)=O)[C@@H](C)OP(=O)(O)O) [peptide 10]	–	–	15
Ac-K(Biotin)AA[2Thi][pT]P[Bip]Q-NH2 [peptide 2]	–	–	22
Ac-K(Biotin)AA[Cha][pT][Tic][2Nal]Q-NH2 (SMILES CC(=O)N[C@@H](CCCCNC(=O)CCCC[C@@H]1SC[C@@H]2NC(=O)N[C@@H]21)C(=O)N[C@@H](C)C(=O)N[C@@H](C)C(=O)N[C@@H](CC1CCCCC1)C(=O)N[C@H](C(=O)N1Cc2ccccc2C[C@H]1C(=O)N[C@@H](Cc1ccc2ccccc2c1)C(=O)N[C@@H](CCC(N)=O)C(N)=O)[C@@H](C)OP(=O)(O)O) [peptide 14]	–	–	25
Ac-K(Biotin)AA[2Nal][pT]P[Tle]Q-NH2 [peptide 7]	–	–	> 50
